According to publication PMC9901791, “Structural insights into catalytical capability for CPT11 hydrolysis and substrate specificity of a novel marine microbial carboxylesterase, E93” (Frontiers in Microbiology, 2023):

Key:
purified protein [1] = substrate: CCc1c2c(nc3ccc(OC(=O)N4CCC(N)CC4)cc13)-c1cc3c(c(=O)n1C2)COC(=O)[C@]3(O)CC; test: purified protein; settings: 5-200 uM substrate, 50 mM HEPES pH 7.4, 37 °C, 10 h
HPLC of SN38 formation [2] = substrate: CCc1c2c(nc3ccc(OC(=O)N4CCC(N5CCCCC5)CC4)cc13)-c1cc3c(c(=O)n1C2)COC(=O)[C@]3(O)CC; test: HPLC of SN38 formation; format: biochemical, Altericroceibacterium indicum; settings: pH 7.4; 37.0 °C
Text: (§1) HPLC of SN38 formation on E93 | the kinetic parameters for the conversion of CPT11 and NPC were obtained from the HPLC

HPLC of SN38 formation [3] = substrate: CCc1c2c(nc3ccc(OC(=O)N4CCC(N)CC4)cc13)-c1cc3c(c(=O)n1C2)COC(=O)[C@]3(O)CC; test: HPLC of SN38 formation; format: biochemical, Altericroceibacterium indicum; settings: 5-200 uM substrate, 50 mM HEPES pH 7.4, 37 °C, 10 h
Text: as §1

purified protein [4] = substrate: CCCCCC(=O)Oc1ccc([N+](=O)[O-])cc1; test: purified protein; format: biochemical, Altericroceibacterium indicum; settings: Tris-HCl pH 7.5, 45 °C
purified protein [5] = substrate: CCCC(=O)Oc1ccc([N+](=O)[O-])cc1; test: purified protein; format: biochemical, Altericroceibacterium indicum; settings: Tris-HCl pH 7.5, 45 °C

B1: E93 (Altericroceibacterium indicum; E428A) (protein)
chain: MARTRYGPVIGKVEQGALAFKGIPYGAPTSGSGRFMPPTPPQPWSTPLRAFDYGPTAPQSDPQDALESGAADARESEDCLTLNVWTPSLNDQRKRPVMVWLHGGGLWRLSAAGDYQAGTHLAAHSDVVMVSPNHRLNVLAHAYLDEYDPAFAGSSSAGMLDLVLALKWVRDNIEEFGGDPDNVTIFGQSGGGQKVSFLMAMPAAAGLFHKAIIQSGPAPLALEKPYARELSARLLTLLDIPKNRVRDIQNVPLDAIMRAYYQIFEELGGFGVMGVIQDFAPVVDDVALPQHPFWNGASPLSRDVPLMIGCTRTEMTEYFLASNPGAAKRDFAAVTAQLEPVFGMQAPAVVAHYRATHPTASPWEVDALIRSDWPTRLFTQRIADEQVKLGGAPVWMYRMDWQTTARDGLLMSPHAIDIPFVLDTVGTAPVEPGQLAEQQRMMQQMNNAWVSFARNGNPQNKYIPPWQPYNSTSRPTMIFNLHSHMANDPDGSDLAFLKKDLANLEVVAGGVTH
**Q.** With B1 as the protein, how does the Km (purified protein [1]) read?
**A.** Its Km is 85.07 ± 9.4 µM.

**Q.** And the kcat (purified protein [1])?
**A.** The kcat was 23.80 ± 2.34 ×10^-3 min^-1.

B2: E93 (Altericroceibacterium indicum) (protein)
chain: MARTRYGPVIGKVEQGALAFKGIPYGAPTSGSGRFMPPTPPQPWSTPLRAFDYGPTAPQSDPQDALESGAADARESEDCLTLNVWTPSLNDQRKRPVMVWLHGGGLWRLSAAGDYQAGTHLAAHSDVVMVSPNHRLNVLAHAYLDEYDPAFAGSSSAGMLDLVLALKWVRDNIEEFGGDPDNVTIFGQSGGGQKVSFLMAMPAAAGLFHKAIIQSGPAPLALEKPYARELSARLLTLLDIPKNRVRDIQNVPLDAIMRAYYQIFEELGGFGVMGVIQDFAPVVDDVALPQHPFWNGASPLSRDVPLMIGCTRTEMTEYFLASNPGAAKRDFAAVTAQLEPVFGMQAPAVVAHYRATHPTASPWEVDALIRSDWPTRLFTQRIADEQVKLGGAPVWMYRMDWQTTARDGLLMSPHAIDIPFVLDTVGTEPVEPGQLAEQQRMMQQMNNAWVSFARNGNPQNKYIPPWQPYNSTSRPTMIFNLHSHMANDPDGSDLAFLKKDLANLEVVAGGVTH
notes: recombinant in E. coli BL21 (DE3), N-terminal His6-SUMO tag (pSMT3), Ni-NTA purified; 57 kDa; 510 residues modelled; catalytic triad S189, E314, H414
**Q.** B2 was tested. Which Km (HPLC of SN38 formation [2]) did it give?
**A.** Its Km is 70.17 ± 7.07 µM.

**Q.** And the Km (HPLC of SN38 formation [3])?
**A.** The Km was 75.66 ± 6.03 µM.

**Q.** What about the kcat (HPLC of SN38 formation [3]) of the same protein?
**A.** The kcat was 35.40 ± 1.70 ×10^-3 min^-1.

**Q.** What about the Km (purified protein [4]) of the same protein?
**A.** The Km was 180 ± 11 µM.

**Q.** What about the Km (purified protein [5]; 0.02-3.50 mM substrate) of the same protein?
**A.** The Km was 210 ± 20 µM.

B3: E93 (Altericroceibacterium indicum; W107A) (protein)
chain: MARTRYGPVIGKVEQGALAFKGIPYGAPTSGSGRFMPPTPPQPWSTPLRAFDYGPTAPQSDPQDALESGAADARESEDCLTLNVWTPSLNDQRKRPVMVWLHGGGLARLSAAGDYQAGTHLAAHSDVVMVSPNHRLNVLAHAYLDEYDPAFAGSSSAGMLDLVLALKWVRDNIEEFGGDPDNVTIFGQSGGGQKVSFLMAMPAAAGLFHKAIIQSGPAPLALEKPYARELSARLLTLLDIPKNRVRDIQNVPLDAIMRAYYQIFEELGGFGVMGVIQDFAPVVDDVALPQHPFWNGASPLSRDVPLMIGCTRTEMTEYFLASNPGAAKRDFAAVTAQLEPVFGMQAPAVVAHYRATHPTASPWEVDALIRSDWPTRLFTQRIADEQVKLGGAPVWMYRMDWQTTARDGLLMSPHAIDIPFVLDTVGTEPVEPGQLAEQQRMMQQMNNAWVSFARNGNPQNKYIPPWQPYNSTSRPTMIFNLHSHMANDPDGSDLAFLKKDLANLEVVAGGVTH
notes: as for B2
**Q.** For B3, which Km (purified protein [4]) is on record?
**A.** Its Km is 210 ± 18 µM.

B4: E93 (Altericroceibacterium indicum; M273A) (protein)
chain: MARTRYGPVIGKVEQGALAFKGIPYGAPTSGSGRFMPPTPPQPWSTPLRAFDYGPTAPQSDPQDALESGAADARESEDCLTLNVWTPSLNDQRKRPVMVWLHGGGLWRLSAAGDYQAGTHLAAHSDVVMVSPNHRLNVLAHAYLDEYDPAFAGSSSAGMLDLVLALKWVRDNIEEFGGDPDNVTIFGQSGGGQKVSFLMAMPAAAGLFHKAIIQSGPAPLALEKPYARELSARLLTLLDIPKNRVRDIQNVPLDAIMRAYYQIFEELGGFGVAGVIQDFAPVVDDVALPQHPFWNGASPLSRDVPLMIGCTRTEMTEYFLASNPGAAKRDFAAVTAQLEPVFGMQAPAVVAHYRATHPTASPWEVDALIRSDWPTRLFTQRIADEQVKLGGAPVWMYRMDWQTTARDGLLMSPHAIDIPFVLDTVGTEPVEPGQLAEQQRMMQQMNNAWVSFARNGNPQNKYIPPWQPYNSTSRPTMIFNLHSHMANDPDGSDLAFLKKDLANLEVVAGGVTH
notes: as for B2
**Q.** For B4, which Km (purified protein [4]) is on record?
**A.** Its Km is 390 ± 25 µM.

B5: E93 (Altericroceibacterium indicum; Q193A) (protein)
chain: MARTRYGPVIGKVEQGALAFKGIPYGAPTSGSGRFMPPTPPQPWSTPLRAFDYGPTAPQSDPQDALESGAADARESEDCLTLNVWTPSLNDQRKRPVMVWLHGGGLWRLSAAGDYQAGTHLAAHSDVVMVSPNHRLNVLAHAYLDEYDPAFAGSSSAGMLDLVLALKWVRDNIEEFGGDPDNVTIFGQSGGGAKVSFLMAMPAAAGLFHKAIIQSGPAPLALEKPYARELSARLLTLLDIPKNRVRDIQNVPLDAIMRAYYQIFEELGGFGVMGVIQDFAPVVDDVALPQHPFWNGASPLSRDVPLMIGCTRTEMTEYFLASNPGAAKRDFAAVTAQLEPVFGMQAPAVVAHYRATHPTASPWEVDALIRSDWPTRLFTQRIADEQVKLGGAPVWMYRMDWQTTARDGLLMSPHAIDIPFVLDTVGTEPVEPGQLAEQQRMMQQMNNAWVSFARNGNPQNKYIPPWQPYNSTSRPTMIFNLHSHMANDPDGSDLAFLKKDLANLEVVAGGVTH
notes: as for B2
**Q.** For B5, which Km (purified protein [4]) is on record?
**A.** Its Km is 100 ± 10 µM.

B6: E93 (Altericroceibacterium indicum; T375I) (protein)
chain: MARTRYGPVIGKVEQGALAFKGIPYGAPTSGSGRFMPPTPPQPWSTPLRAFDYGPTAPQSDPQDALESGAADARESEDCLTLNVWTPSLNDQRKRPVMVWLHGGGLWRLSAAGDYQAGTHLAAHSDVVMVSPNHRLNVLAHAYLDEYDPAFAGSSSAGMLDLVLALKWVRDNIEEFGGDPDNVTIFGQSGGGQKVSFLMAMPAAAGLFHKAIIQSGPAPLALEKPYARELSARLLTLLDIPKNRVRDIQNVPLDAIMRAYYQIFEELGGFGVMGVIQDFAPVVDDVALPQHPFWNGASPLSRDVPLMIGCTRTEMTEYFLASNPGAAKRDFAAVTAQLEPVFGMQAPAVVAHYRATHPTASPWEVDALIRSDWPIRLFTQRIADEQVKLGGAPVWMYRMDWQTTARDGLLMSPHAIDIPFVLDTVGTEPVEPGQLAEQQRMMQQMNNAWVSFARNGNPQNKYIPPWQPYNSTSRPTMIFNLHSHMANDPDGSDLAFLKKDLANLEVVAGGVTH
notes: as for B2
**Q.** Which Km (purified protein [4]) does the source give for B6 here?
**A.** The Km was 110 ± 10 µM.

**Q.** And the Km (purified protein [5])?
**A.** Its Km is 100 ± 10 µM.

B7: E93 (Altericroceibacterium indicum; Y318A) (protein)
chain: MARTRYGPVIGKVEQGALAFKGIPYGAPTSGSGRFMPPTPPQPWSTPLRAFDYGPTAPQSDPQDALESGAADARESEDCLTLNVWTPSLNDQRKRPVMVWLHGGGLWRLSAAGDYQAGTHLAAHSDVVMVSPNHRLNVLAHAYLDEYDPAFAGSSSAGMLDLVLALKWVRDNIEEFGGDPDNVTIFGQSGGGQKVSFLMAMPAAAGLFHKAIIQSGPAPLALEKPYARELSARLLTLLDIPKNRVRDIQNVPLDAIMRAYYQIFEELGGFGVMGVIQDFAPVVDDVALPQHPFWNGASPLSRDVPLMIGCTRTEMTEAFLASNPGAAKRDFAAVTAQLEPVFGMQAPAVVAHYRATHPTASPWEVDALIRSDWPTRLFTQRIADEQVKLGGAPVWMYRMDWQTTARDGLLMSPHAIDIPFVLDTVGTEPVEPGQLAEQQRMMQQMNNAWVSFARNGNPQNKYIPPWQPYNSTSRPTMIFNLHSHMANDPDGSDLAFLKKDLANLEVVAGGVTH
**Q.** B7 was tested. Which Km (purified protein [1]) did it give?
**A.** Its Km is 55.47 ± 5.17 µM.

**Q.** What about the kcat (purified protein [1]) of the same protein?
**A.** The kcat was 40.87 ± 3.07 ×10^-3 min^-1.

B8: E93 (Altericroceibacterium indicum; T375A) (protein)
chain: MARTRYGPVIGKVEQGALAFKGIPYGAPTSGSGRFMPPTPPQPWSTPLRAFDYGPTAPQSDPQDALESGAADARESEDCLTLNVWTPSLNDQRKRPVMVWLHGGGLWRLSAAGDYQAGTHLAAHSDVVMVSPNHRLNVLAHAYLDEYDPAFAGSSSAGMLDLVLALKWVRDNIEEFGGDPDNVTIFGQSGGGQKVSFLMAMPAAAGLFHKAIIQSGPAPLALEKPYARELSARLLTLLDIPKNRVRDIQNVPLDAIMRAYYQIFEELGGFGVMGVIQDFAPVVDDVALPQHPFWNGASPLSRDVPLMIGCTRTEMTEYFLASNPGAAKRDFAAVTAQLEPVFGMQAPAVVAHYRATHPTASPWEVDALIRSDWPARLFTQRIADEQVKLGGAPVWMYRMDWQTTARDGLLMSPHAIDIPFVLDTVGTEPVEPGQLAEQQRMMQQMNNAWVSFARNGNPQNKYIPPWQPYNSTSRPTMIFNLHSHMANDPDGSDLAFLKKDLANLEVVAGGVTH
notes: as for B2
**Q.** Which Km (purified protein [4]) does the source give for B8 here?
**A.** The Km was 130 ± 10 µM.
